Results as given in US20100278838A1, “EPHA2 MONOCLONAL ANTIBODIES AND METHODS OF USE THEREOF” (MEDIMMUNE, LLC, priority 2002, published 2010).
Entries after “also recorded” stand apart in the source; their conditions may differ.

What was measured:
[1] = tested on: EphA2 on non-transformed MCF-10A cells; test: Immunofluorescence binding to non-transformed cells with or without EGTA; type: cell-based; details: 4mM EGTA for 20 min
Protocol: (A, B) Non-transformed MCF-10A cells were labeled with EA2 at 4° C. either before (A) or after (B) treatment with EGTA and prior to fixation and immunolabeling with fluorophore-conjugated anti-mouse IgG. (C, D) Non-transformed MCF-10A (C) or transformed MDA-MB-231 (D) cells were labeled with EA2 either before (middle) or after (top) treatment with EGTA. Control cells were incubated with secondary antibody alone (bottom). The amount of EA2-EphA2 binding was measured using flow cytometry.
The epitopes of EphA2 antibodies were characterized. Non-transformed MCF-10A cells or transformed MDA-MB-231 cells were incubated with 10 μg/ml Eph099B-233.152 or EA2 at 4° C. for 30 min. prior to fixation in a 3% formalin solution and immunolabeling with fluorophore-conjugated anti-mouse IgG. […] Treatment of non-transformed MCF-10A cells with 4mM EGTA for 20 min. dissociated the cells.

[2] = tested on: A549 lung cancer cells implanted subcutaneously; test: Tumor growth in vivo, A549 implanted subcutaneously; parameters: species or system athymic mice; details: 6mg/kg intraperitoneally twice a week for 3 weeks; versus PBS or 1A7
Protocol: FIGS. 7A-7D: The EphA2 antibodies, EA2, Eph099B-208.261, and Eph099B-233.152, inhibit tumor cell growth in vivo. MDA-MB-231 breast cancer cells were implanted (A) orthotopically or (B) subcutaneously into athymic mice. (C) A549 lung cancer cells were implanted subcutaneously into athymic mice. After the tumors had grown to an average volume of 100 mm^3, mice were administered 6 mg/kg of the indicated antibody or negative control (PBS or 1A7 antibody) intraperitoneally twice a week for 3 weeks. Tumor growth was assessed and expressed as a ratio of the tumor volume divided by initial tumor volume (100 mm^3). (D) MDA-MB-231 breast cancer cells were implanted subcutaneously into athymic mice. After the tumors had grown to an average volume of 100 mm^3, mice were administered 6 mg/kg of the indicated antibody or negative control intraperitoneally twice a week for 3 weeks. Total tumor volume was determined after sacrifice. Negative control is black, EA2 is white, Eph099B-208.261 is dark grey, and Eph099B-233.152 is light grey.
5×10^6MDA-MB-231 breast cancer cells were implanted orthotopically or subcutaneously and 5×10^6 A549 lung cancer cells were implanted subcutaneously into athymic mice. […] Tumor growth was assessed and expressed either as a ratio of the tumor volume divided by initial tumor volume (100 mm^3) or as total tumor volume. […]

[3] = tested on: cancer cell colonies already formed in soft agar; test: Elimination of cancer cell colonies already formed in soft agar; type: cell-based; details: antibodies added on third day; data not shown
Protocol: The ability of the antibodies of the invention to inhibit cancer cell formation in soft agar was assayed as described in Zelinski et al. (2001, Cancer Res. 61:2301-6). Briefly, cells were suspended in soft agar for 7 days at 37° C. in the presence of purified antibody or control solution (PBS). Antibodies were administered at the time of suspension in both bottom and top agar solutions. Colony formation was scored microscopically using an Olympus CK-3 inverted phase-contrast microscope outfitted with a 40× objective. Clusters containing at least three cells were scored as a positive.
The ability of the antibodies of the invention to eliminate cancer cell colonies already formed in soft agar was assayed. Assay methods were similar to those described above except that antibodies were not added to the cancer cells until the third day of growth in soft agar.

immobilized EphA2-Fc = target: T1, immobilized EphA2-Fc (Homo sapiens, UniProt P29317); test: BIACORE surface plasmon resonance kinetic analysis (Koff); type: binding; details: FIG. 15
T1 construct: consisted of the extracellular domain of human EphA2 linked to human immunoglobulin
T1 sequence (P29317 24-537 limits assumed): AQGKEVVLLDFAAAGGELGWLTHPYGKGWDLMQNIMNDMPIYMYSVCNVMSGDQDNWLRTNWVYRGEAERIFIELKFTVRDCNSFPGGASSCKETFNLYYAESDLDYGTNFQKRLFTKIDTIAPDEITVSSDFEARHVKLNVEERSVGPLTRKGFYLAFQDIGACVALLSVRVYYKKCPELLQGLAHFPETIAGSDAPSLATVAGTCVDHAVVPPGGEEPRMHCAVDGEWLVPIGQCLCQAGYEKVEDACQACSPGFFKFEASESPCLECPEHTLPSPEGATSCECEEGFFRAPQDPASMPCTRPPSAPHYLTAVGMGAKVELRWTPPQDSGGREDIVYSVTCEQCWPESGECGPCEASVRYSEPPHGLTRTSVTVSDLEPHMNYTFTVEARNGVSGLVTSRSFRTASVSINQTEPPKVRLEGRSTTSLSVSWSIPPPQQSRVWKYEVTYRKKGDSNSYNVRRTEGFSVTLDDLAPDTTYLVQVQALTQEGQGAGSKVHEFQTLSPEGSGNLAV
Description: FIG. 15: Kinetic analysis of EphA2 monoclonal antibodies. BIACORE™ (surface plasmon resonance-based) assays were used to assay the kinetics of EphA2 monoclonal antibody binding to immobilized EphA2-Fc. Eph099B-208.261 is indicated by a solid line, Eph099B-233.152 is indicated by a dotted line, EA2 is indicated by a dashed line, and the negative control is indicated by squares.
The surface plasmon resonance-based BIACORE™ assay was used to measure the Koff rates of the monoclonal antibodies of the invention. IgG present in the hybridoma supernatant was used for measurement.
EphA2-Fc was immobilize to a surface on a CM5 sensorchip using a standard amine (70 μl of a 1:1 mix of NHS/EDC) coupling chemistry. Briefly, a 400 nM solution of EphA2-Fc in 10 mM NaOAc, pH4, was then injected over the activated surface to a density of 1000-1100 RU's. Unused reactive esters were subsequently “capped” with a 70 μl injection of 1M Et-NH2. Similarly, an activated and “capped” control surface was prepared on the same sensor chip without protein to serve as a reference surface.
A 250 μl injection of each of the EphA2 hybridoma supernatants was made over both the EphA2-Fc and control surfaces, and the binding responses were recorded. These supernatants were used undiluted. Following each injection, at least 10 min. of dissociation phase data was collected. […]

B1: EA2: EphA2 agonistic monoclonal antibody; ATCC deposit no. PTA-4380; co-pending application Ser. No. 10/436,783; VL SEQ ID NO:33, VH SEQ ID NO:37 (antibody, listed as Homo Sapiens, V domains shown)
VH: DVKLVESGGGLVKPGGSLKLSCAASGFTFSSYTMSWVRQTPEKRLEWVATISSGGTYTYYPDSVKGRFTISRDNAKNTLYLQMSSLKSEDTAMYYCTREAIFTYWGQGTLVTVSA
VL: DIKMTQSPSSMYASLGERVTITCKASQDINNYLSWFQQKPGKSPKTLIYRANRLVDGVPSRFSGSGSGQDYSLTISSLEYEDMGIYYCLKYDEFPYTFGGGTKLEIK
Binding to EphA2 on MCF-10A cells with or without EGTA dissociation [1]: bound EphA2 on the EGTA dissociated cells but not the untreated cells; also recorded: preferentially binds EphA2 epitopes exposed by decreasing cell-cell contacts | Growth of A549 cells implanted subcutaneously [2]: inhibited

B2: Eph099B-208.261: EphA2 monoclonal antibody; hybridoma ATCC PTA-4573; VL SEQ ID NO:1, VH SEQ ID NO:5 (antibody, listed as Homo sapiens, V domains shown)
VH: QVQLQQPGAELVKPGASVKLSCKASGYTFTSYWMHWVKQRPGQGLEWIGMIHPNSGSTNYNEKFKSKATLTVDKSSSTAYMRLSSLTSEDSAVYYCARGGNMVGGGYWGQGTTLTVSS
VL: QIVLTQSPALMSASPGEKVTMTCSASSSVSYMYWYQQKPRSSPKPWIYLTTNLASGVPARFSGSGSGTSYSLTISSMEAEDAATYYCQQWSSNPFTFGSGTKLEIR
Growth of A549 cells implanted subcutaneously [2]: inhibited | Effect on cancer cell colonies already growing in soft agar [3]: can slow or reduce cancer cell colony growth in soft agar | Koff rate compared with EA2 (immobilized EphA2-Fc): slower Koff rates than EA2

B3: Eph099B-233.152: EphA2 monoclonal antibody; hybridoma ATCC PTA-5194; VL SEQ ID NO:17, VH SEQ ID NO:21 (antibody, listed as Homo sapiens, V domains shown)
VH: EVKLVESGGGLVQPGGSLSLSCAASGFTFTDYSMNWVRQPPGKALEWLGFIRNKANDYTTEYSASVKGRFTISRDNSQSILYLQMNALRAEDSATYYCVRYPRYHAMDSWGQGTSVTVSS
VL: DIVLTQSPATLSVTPGDSVNLSCRASQSISNNLHWYQQKSHESPRLLIKYVFQSISGIPSRFSGSGSGTDFTLSINSVETEDFGMYFCQQSNSWPLTFGAGTKLELK
Effect on cancer cell colonies already growing in soft agar [3]: can slow or reduce cancer cell colony growth in soft agar | Koff rate compared with EA2 (immobilized EphA2-Fc): slower Koff rates than EA2
